Experimental data published in patent US20240301056A1 (APITBIO, published 2024).

Tests used:
[1] = target: Human L1CAM (purified protein) (human) (UniProt P32004); test: competitive ELISA; antibody pre-incubated with soluble human L1CAM, free antibody detected on coated human L1CAM
[2] = target: Human L1CAM (purified protein) (human) (UniProt P32004); test: BLI, Octet RED384; antibody captured on AHC sensor, human L1CAM 50-0.78 nM as analyte
[3] = target: Human L1CAM (purified protein) (human) (UniProt P32004); test: BLI (Octet RED384), antibody captured on AHC sensor, human L1CAM in solution; upper end told of the variants as a group, tied to Ab4H5 by the KD values of the same paragraph (0.2 nM against 8 pM)
[4] = target: T1, Mouse L1CAM on B16F1 cells (mouse, UniProt P11627 20-1260); test: flow cytometry on B16F1 cells, antibody 10 ug/ml, FITC anti-human IgG Fc secondary
T1 construct: whole, on cells; also called mouse L1CAM-positive cells
Description: In order to examine whether the variant antibodies selectively bind to human and mouse L1CAM, flow cytometry was performed using various types of cells. In this regard, as a comparative antibody, the Ab417 antibody which binds to human L1 CAM and mouse L1 CAM was used.
CHO-DG44 (ATCC No. PTA-3356) cells that are known to express no human L1CAM were cultured and used as a negative control. Also, cells expressing human L1CAM, human ovarian carcinoma, SKOV3 (ATCC No. HTB-77) and human non-small cell lung carcinoma, NCI-H522 (AYCC NO. CRL-5810) were cultured. As cells expressing mouse L1CAM, a melanoma cell line, B16F1 (ATCC No. CRL-6323) was cultured. The cultured cells were harvested using a dissociation buffer or 0.05% trypsin (GIBCO) for CHO-DG44 cell, resuspended in 1% PBA solution, and placed on ice for 20 minutes. The cells were then added to round bottom polystyrene test tube (Falcon) at a density of 4×10⁵ cells per tube. The purified antibodies were diluted in PBA solution at a concentration of 10 ug/ml, and 100 μl was added to each tube and mixed well. The tubes were placed in 4° C. for 1 hour. The secondary antibody which specifically binds to the Fc region of human IgG and is covalently linked with FITC (Sigma) was added to each tube at a ratio of 1:2000. The plate was wrapped with foil to block light and allowed to react at 4° C. for 1 hour. A staining reagent PI (propidium iodide, Sigma) was added at a ratio of 1:200 to evaluate cell viability. After all reactions were completed, FITC and PI fluorescent signals were detected in the cells.

[5] = target: Human L1CAM (purified protein) (human) (UniProt P32004); test: competitive ELISA; lower end of the range, tied to Ab612 by Table 9
[6] = target: Human L1CAM (purified protein) (human) (UniProt P32004); test: competitive ELISA; upper end of the range, tied to Ab2C2 by Table 9

T1 sequence (P11627 20-1260): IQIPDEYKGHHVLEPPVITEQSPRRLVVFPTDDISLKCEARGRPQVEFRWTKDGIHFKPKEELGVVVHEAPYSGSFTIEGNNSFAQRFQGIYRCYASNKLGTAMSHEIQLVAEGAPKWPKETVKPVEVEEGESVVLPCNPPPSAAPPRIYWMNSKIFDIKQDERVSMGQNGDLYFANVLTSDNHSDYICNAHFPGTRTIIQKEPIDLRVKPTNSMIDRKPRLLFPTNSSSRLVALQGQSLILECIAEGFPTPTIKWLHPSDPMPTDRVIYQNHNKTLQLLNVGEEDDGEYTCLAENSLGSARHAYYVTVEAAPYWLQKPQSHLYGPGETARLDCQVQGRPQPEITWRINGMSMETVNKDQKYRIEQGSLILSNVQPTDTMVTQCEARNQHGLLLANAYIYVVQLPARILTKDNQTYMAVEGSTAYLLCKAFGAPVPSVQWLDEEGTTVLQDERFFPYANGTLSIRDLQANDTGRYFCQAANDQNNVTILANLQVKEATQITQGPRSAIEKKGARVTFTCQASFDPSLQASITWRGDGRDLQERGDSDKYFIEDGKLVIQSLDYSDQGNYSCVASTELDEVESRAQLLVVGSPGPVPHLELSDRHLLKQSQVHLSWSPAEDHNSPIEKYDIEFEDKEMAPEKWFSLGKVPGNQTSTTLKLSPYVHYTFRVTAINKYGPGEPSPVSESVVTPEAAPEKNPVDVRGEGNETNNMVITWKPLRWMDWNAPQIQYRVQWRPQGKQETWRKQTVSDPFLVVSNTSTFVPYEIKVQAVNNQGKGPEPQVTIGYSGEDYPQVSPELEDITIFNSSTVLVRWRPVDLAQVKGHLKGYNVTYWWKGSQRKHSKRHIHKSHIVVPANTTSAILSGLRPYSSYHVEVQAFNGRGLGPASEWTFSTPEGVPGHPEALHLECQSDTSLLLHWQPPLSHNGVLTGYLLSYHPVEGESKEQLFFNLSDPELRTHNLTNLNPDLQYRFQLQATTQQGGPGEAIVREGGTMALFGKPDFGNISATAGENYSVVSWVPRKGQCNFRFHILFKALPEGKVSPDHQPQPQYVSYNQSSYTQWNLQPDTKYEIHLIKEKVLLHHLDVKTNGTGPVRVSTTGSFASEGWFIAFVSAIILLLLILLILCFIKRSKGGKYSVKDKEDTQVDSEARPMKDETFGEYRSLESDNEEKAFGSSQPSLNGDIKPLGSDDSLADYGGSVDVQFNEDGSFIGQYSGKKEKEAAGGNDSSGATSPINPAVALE

Row | Affinity (K) [1] [pM] | Kd [2] [nM] | koff [2] [s⁻¹] | kon [2] [M⁻¹ s⁻¹] | fold increased affinity compared to Ab417 [3] [fold] | binding result [4] | fold higher binding affinity than Ab417 [5] [fold] | fold higher binding affinity than Ab417 [6] [fold] | Binder
1 | 60 | 0.00822 | 2.98e-06 | 363000 | 25 | binds |  |  | Ab4H5 antibody (antibody, human IgG1, kappa, V domains shown, Whole human IgG1, kappa; also called Anti-L1CAM ("Ab4H5"); Ab4H5 mutant) VH: EVQLVESGGGVVQPGGSLRLSCAASGFTFSRFGMHWVRQAPGKGLEWVAFISNEGSNKYYADSVKGRFTISRDNSANTLYLQMNSLRAEDTAVYYCARGRAYGSGSLFDPWGQGTLVTVSS VL: DIQLTQSPSSLSASVGDRVTITCRASRTISSYVNWYRQRPGKAPESLIYAASNLHSGVPSRFSGSGSGTDFTLTISSLQPEDFATYYCQQAGFYTPWTFGQGTKLEIKR
2 | 60 | 0.0741 | 2.77e-05 | 373000 |  | binds |  |  | Ab4H6 antibody (antibody, human IgG1, kappa, V domains shown, Whole human IgG1, kappa; also called Anti-L1CAM ("Ab4H6"); Ab4H6 mutant) VH: EVQLVESGGGVVQPGGSLRLSCAASGFTFSRFGMHWVRQAPGKGLEWVAFISNEGSNKYYADSVKGRFTISRDNSANTLYLQMNSLRAEDTAVYYCARGRAYGSGSLFDPWGQGTLVTVSS VL: DIQLTQSPSSLSASVGDRVTITCRASRTISSYVNWYRQRPGKAPESLIYAASNLHSGVPSRFSGSGSGTDFTLTISSLQPEDFATYYCQQSLHFYPWTFGQGTKLEIKR
3 | 120 | 0.096 | 3.94e-05 | 411000 |  | binds |  |  | Ab5D12 antibody (antibody, human IgG1, kappa, V domains shown, Whole human IgG1, kappa; also called Anti-L1CAM ("Ab5D12"); Ab5D12 mutant) VH: EVQLVESGGGVVQPGGSLRLSCAASGFTFSRFGMHWVRQAPGKGLEWVAFISNEGSNKYYADSVKGRFTISRDNSANTLYLQMNSLRAEDTAVYYCARGRAYGSGSLFDPWGQGTLVTVSS VL: DIQLTQSPSSLSASVGDRVTITCRASRTISSYVNWYRQRPGKAPESLIYAASNLHSGVPSRFSGSGSGTDFTLTISSLQPEDFATYYCQQSLVWYPWTFGQGTKLEIKR
4 | 260 | 0.105 | 3.28e-05 | 313000 |  | binds | 2 to 10 |  | Ab612 antibody (antibody, human IgG1, kappa, V domains shown, Whole human IgG1, kappa, purified on protein A; also called Anti-L1CAM ("Ab612")) VH: EVQLVESGGGVVQPGGSLRLSCAASGFTFSRFGMHWVRQAPGKGLEWVAFISNEGSNKYYADSVKGRFTISRDNSANTLYLQMNSLRAEDTAVYYCARGRAYGSGSLFDPWGQGTLVTVSS VL: DIQLTQSPSSLSASVGDRVTITCRASRTISSYVNWYRQRPGKAPESLIYAASNLHSGVPSRFSGSGSGTDFTLTISSLQPEDFATYYCQQSIGRGPVTFGQGTKLEIKR
5 | 50 | < 0.001 | < 1e-07 | 344000 |  | binds |  | 2 to 10 | Ab2C2 antibody (antibody, human IgG1, kappa, V domains shown, Whole human IgG1, kappa; also called Anti-L1CAM ("Ab2C2"); Ab2C2 mutant) VH: EVQLVESGGGVVQPGGSLRLSCAASGFTFSRFGMHWVRQAPGKGLEWVAFISNEGSNKYYADSVKGRFTISRDNSANTLYLQMNSLRAEDTAVYYCARGRAYGSGSLFDPWGQGTLVTVSS VL: DIQLTQSPSSLSASVGDRVTITCRASRTISSYVNWYRQRPGKAPESLIYAASNLHSGVPSRFSGSGSGTDFTLTISSLQPEDFATYYCQQAGFYSPWTFGQGTKLEIKR
